Results as given in publication PMC2958096.
Like-named read-outs stand apart in the source and are kept apart here.

What was measured:
[1] = biological target: T1, SUD-M (SARS-CoV, UniProt P0C6U8 1345-1469); experiment: EMSA
[2] = biological target: T1, SUD-M
[3] = biological target: T2, SUD-MC (SARS-CoV, UniProt P0C6U8 1345-1538); experiment: NMR chemical shift perturbation
[4] = biological target: T1, SUD-M; experiment: EMSA; remark: listed apart in the source
[5] = biological target: T2, SUD-MC; experiment: EMSA
[6] = biological target: T2, SUD-MC; experiment: NMR chemical shift perturbation; remark: listed apart in the source
[7] = biological target: T1, SUD-M; experiment: NMR chemical shift perturbation
[8] = biological target: T3, SUD-C (SARS-CoV, UniProt P0C6U8 1473-1538); experiment: EMSA
[9] = biological target: T2, SUD-MC; experiment: EMSA; remark: listed apart in the source
[10] = biological target: T3, SUD-C; experiment: NMR chemical shift perturbation
[11] = biological target: T2, SUD-MC; experiment: EMSA; remark: listed apart in the source
[12] = biological target: T1, SUD-M; experiment: EMSA; remark: listed apart in the source
[13] = biological target: T3, SUD-C; experiment: NMR chemical shift perturbation; remark: listed apart in the source
[14] = biological target: T2, SUD-MC; experiment: NMR chemical shift perturbation; remark: listed apart in the source

B1: GGGAGGGA (ssRNA)
RNA: GGGAGGGA
binding result [1]: binds

B2: TRS(+) (ssRNA)
RNA: CUAAACGAAC
binding result [2]: no binding
binding result [3]: binds

B3: TRS(-) (ssRNA)
RNA: GUUCGUUUAG
binding result [2]: no binding

B4: GGGAGGGAGG (ssRNA)
RNA: GGGAGGGAGG
binding result [4]: binds
binding result [5]: binds

B5: (GGA)4 (ssRNA)
RNA: GGAGGAGGAGGA
binding result [6]: binds
binding result [7]: binds

B6: (GGGA)5 (ssRNA)
RNA: GGGAGGGAGGGAGGGAGGGA
binding result [4]: binds
binding result [8]: no binding
binding result [9]: binds

B7: G10 (ssRNA)
RNA: GGGGGGGGGG
binding result [10]: binds

B8: (ACUG)5 (ssRNA)
RNA: ACUGACUGACUGACUGACUG
binding result [8]: no binding
binding result [11]: no binding
binding result [12]: binds

B9: A10 (ssRNA)
RNA: AAAAAAAAAA
binding result [13]: binds
binding result [14]: binds
